Assay results: PMC9482650, “Quantitative fragmentomics allow affinity mapping of interactomes” (Nature Communications, 2022)

B1: NOSTRIN, Q8IVI9 (peptide)
chain: SNAGNTATKA
B2: SAPCD1, Q5SSQ6 (peptide)
chain: TKGPRGPTRV

Each binder was assayed against LAP2, Q96RT1 (assay: holdup assay). Details: plain residues with an end cap or a label only (N-terminal biotin on a linker: ado-ado).
Design: key: below the threshold = too weak to quantify, mostly under pKd 3.1 to 4

Chain of LAP2, Q96RT1 (Q96RT1 other isoform, or with tags, fused parts or gaps): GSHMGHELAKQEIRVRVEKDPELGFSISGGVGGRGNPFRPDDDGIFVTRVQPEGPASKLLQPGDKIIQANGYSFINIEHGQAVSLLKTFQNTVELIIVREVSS

Binder | pKd
B1 | below the threshold
B2 | 3.72

The binders below were run against GRIP2_6, Q9C0E4 (assay: holdup assay). Details: plain residues with an end cap or a label only (N-terminal biotin on a linker: ado-ado).
Design: key: below the threshold = too weak to quantify, mostly under pKd 3.1 to 4

Chain of GRIP2_6, Q9C0E4 (Q9C0E4 648-740): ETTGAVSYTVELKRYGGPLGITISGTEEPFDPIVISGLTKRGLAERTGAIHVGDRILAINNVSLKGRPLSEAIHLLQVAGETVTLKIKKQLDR

Binder | pKd
B1 | below the threshold
B2 | below the threshold

Each binder was assayed against T1, TIAM2, Q8IVF5 (assay: holdup assay). Details: plain residues with an end cap or a label only (N-terminal biotin on a linker: ado-ado).
T1 sequence (Q8IVF5 885-986, limits assumed, looked up): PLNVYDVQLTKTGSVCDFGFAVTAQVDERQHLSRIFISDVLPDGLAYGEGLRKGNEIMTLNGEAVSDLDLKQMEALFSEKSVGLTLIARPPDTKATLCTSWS
Design: key: below the threshold = too weak to quantify, mostly under pKd 3.1 to 4

Binder | pKd
B1 | 4.11
B2 | below the threshold

What follows are binders tested against T2, NHERF3_1, Q5T2W1 (assay: holdup assay). Details: plain residues with an end cap or a label only (N-terminal biotin on a linker: ado-ado).
T2 sequence (Q5T2W1 4-100, limits assumed, looked up): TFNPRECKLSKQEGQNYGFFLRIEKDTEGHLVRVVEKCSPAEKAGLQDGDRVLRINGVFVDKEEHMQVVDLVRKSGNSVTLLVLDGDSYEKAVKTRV
Design: key: below the threshold = too weak to quantify, mostly under pKd 3.1 to 4

Binder | pKd
B1 | below the threshold
B2 | below the threshold

What follows are binders tested against CASK, O14936 (assay: holdup assay). Details: plain residues with an end cap or a label only (N-terminal biotin on a linker: ado-ado).
Design: key: below the threshold = too weak to quantify, mostly under pKd 3.1 to 4

Chain of CASK, O14936 (O14936 487-570): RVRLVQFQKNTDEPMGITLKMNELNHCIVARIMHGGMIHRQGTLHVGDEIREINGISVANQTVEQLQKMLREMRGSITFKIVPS

Binder | pKd
B1 | below the threshold
B2 | below the threshold

These binders were tested against NHERF2_2, Q15599 (assay: holdup assay). Details: plain residues with an end cap or a label only (N-terminal biotin on a linker: ado-ado).
Design: key: below the threshold = too weak to quantify, mostly under pKd 3.1 to 4

Chain of NHERF2_2, Q15599 (Q15599 142-238): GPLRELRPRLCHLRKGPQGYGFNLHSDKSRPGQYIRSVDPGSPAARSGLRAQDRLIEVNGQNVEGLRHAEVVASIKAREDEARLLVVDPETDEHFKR

Binder | pKd
B1 | below the threshold
B2 | below the threshold

What follows are binders tested against LNX1_2, Q8TBB1 (assay: holdup assay). Details: plain residues with an end cap or a label only (N-terminal biotin on a linker: ado-ado).
Design: key: below the threshold = too weak to quantify, mostly under pKd 3.1 to 4

Chain of LNX1_2, Q8TBB1 (Q8TBB1 371-470): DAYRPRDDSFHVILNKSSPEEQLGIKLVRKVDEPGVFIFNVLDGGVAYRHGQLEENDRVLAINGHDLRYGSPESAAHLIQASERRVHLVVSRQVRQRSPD

Binder | pKd
B1 | below the threshold
B2 | below the threshold

These binders were tested against HTRA2, O43464 (assay: holdup assay). Details: plain residues with an end cap or a label only (N-terminal biotin on a linker: ado-ado).
Design: key: below the threshold = too weak to quantify, mostly under pKd 3.1 to 4

Chain of HTRA2, O43464 (O43464 355-458): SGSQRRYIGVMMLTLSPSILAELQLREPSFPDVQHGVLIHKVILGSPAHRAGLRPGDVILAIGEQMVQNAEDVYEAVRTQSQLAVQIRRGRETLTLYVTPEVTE

Binder | pKd
B1 | below the threshold
B2 | below the threshold

The binders below were run against T3, MPDZ_10, O75970 (assay: holdup assay). Details: plain residues with an end cap or a label only (N-terminal biotin on a linker: ado-ado).
T3 sequence (O75970 1624-1722, limits assumed, looked up): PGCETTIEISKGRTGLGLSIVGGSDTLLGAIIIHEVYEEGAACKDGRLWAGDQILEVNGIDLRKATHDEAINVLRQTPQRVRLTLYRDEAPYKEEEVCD
Design: key: below the threshold = too weak to quantify, mostly under pKd 3.1 to 4

Binder | pKd
B1 | below the threshold
B2 | 4.4

What follows are binders tested against GRIP2_5, Q9C0E4 (assay: holdup assay). Details: plain residues with an end cap or a label only (N-terminal biotin on a linker: ado-ado).
Design: key: below the threshold = too weak to quantify, mostly under pKd 3.1 to 4

Chain of GRIP2_5, Q9C0E4 (Q9C0E4 544-642): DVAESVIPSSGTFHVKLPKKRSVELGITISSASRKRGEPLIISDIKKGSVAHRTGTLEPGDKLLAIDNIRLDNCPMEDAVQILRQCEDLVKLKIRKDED

Binder | pKd
B1 | below the threshold
B2 | below the threshold

What follows are binders tested against GORASP1, Q9BQQ3 (assay: holdup assay). Details: plain residues with an end cap or a label only (N-terminal biotin on a linker: ado-ado).
Design: key: below the threshold = too weak to quantify, mostly under pKd 3.1 to 4

Chain of GORASP1, Q9BQQ3 (Q9BQQ3 1-208): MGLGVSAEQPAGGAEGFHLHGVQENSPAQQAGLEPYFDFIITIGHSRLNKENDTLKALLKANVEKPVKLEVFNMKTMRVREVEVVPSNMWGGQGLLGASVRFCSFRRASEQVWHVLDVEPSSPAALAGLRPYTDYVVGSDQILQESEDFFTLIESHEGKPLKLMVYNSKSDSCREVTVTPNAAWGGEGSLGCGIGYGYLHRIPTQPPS

Binder | pKd
B1 | below the threshold
B2 | 3.57

What follows are binders tested against T4, PDZRN3_1, Q9UPQ7 (assay: holdup assay). Details: plain residues with an end cap or a label only (N-terminal biotin on a linker: ado-ado).
T4 sequence (Q9UPQ7 244-349, limits assumed, looked up): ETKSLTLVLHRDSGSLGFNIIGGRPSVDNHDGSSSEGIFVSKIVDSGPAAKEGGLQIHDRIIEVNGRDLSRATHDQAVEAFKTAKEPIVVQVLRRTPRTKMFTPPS
Design: key: below the threshold = too weak to quantify, mostly under pKd 3.1 to 4

Binder | pKd
B1 | below the threshold
B2 | 4.03

Each binder was assayed against T5, APBA1_2, Q02410 (assay: holdup assay). Details: plain residues with an end cap or a label only (N-terminal biotin on a linker: ado-ado).
T5 sequence (Q02410 742-832, limits assumed, looked up): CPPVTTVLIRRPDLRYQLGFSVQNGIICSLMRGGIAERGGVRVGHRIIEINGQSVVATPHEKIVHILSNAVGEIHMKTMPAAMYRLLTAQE
Design: key: below the threshold = too weak to quantify, mostly under pKd 3.1 to 4

Binder | pKd
B1 | below the threshold
B2 | 4.47

The binders below were run against FRMPD2_2, Q68DX3 (assay: holdup assay). Details: plain residues with an end cap or a label only (N-terminal biotin on a linker: ado-ado).
Design: key: below the threshold = too weak to quantify, mostly under pKd 3.1 to 4

Chain of FRMPD2_2, Q68DX3 (Q68DX3 944-1038): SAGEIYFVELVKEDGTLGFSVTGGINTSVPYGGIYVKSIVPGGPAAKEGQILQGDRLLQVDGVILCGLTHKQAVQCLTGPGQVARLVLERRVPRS

Binder | pKd
B1 | below the threshold
B2 | below the threshold

What follows are binders tested against T6, PTPN13_1, Q12923 (assay: holdup assay). Details: plain residues with an end cap or a label only (N-terminal biotin on a linker: ado-ado).
T6 sequence (Q12923 1088-1188, limits assumed, looked up): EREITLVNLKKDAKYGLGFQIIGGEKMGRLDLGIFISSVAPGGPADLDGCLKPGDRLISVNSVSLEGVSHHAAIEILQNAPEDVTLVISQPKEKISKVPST
Design: key: below the threshold = too weak to quantify, mostly under pKd 3.1 to 4

Binder | pKd
B1 | below the threshold
B2 | below the threshold

What follows are binders tested against GRIP2_4, Q9C0E4 (assay: holdup assay). Details: plain residues with an end cap or a label only (N-terminal biotin on a linker: ado-ado).
Design: key: below the threshold = too weak to quantify, mostly under pKd 3.1 to 4

Chain of GRIP2_4, Q9C0E4 (Q9C0E4 446-548): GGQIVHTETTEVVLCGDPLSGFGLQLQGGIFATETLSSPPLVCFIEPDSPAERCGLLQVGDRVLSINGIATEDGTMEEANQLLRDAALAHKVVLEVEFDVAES

Binder | pKd
B1 | below the threshold
B2 | below the threshold

Each binder was assayed against T7, APBA2_1, Q99767 (assay: holdup assay). Details: plain residues with an end cap or a label only (N-terminal biotin on a linker: ado-ado).
T7 sequence (Q99767 563-664, limits assumed, looked up): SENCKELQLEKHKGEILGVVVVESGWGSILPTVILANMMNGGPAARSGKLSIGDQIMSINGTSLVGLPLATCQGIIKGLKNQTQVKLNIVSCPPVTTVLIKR
Design: key: below the threshold = too weak to quantify, mostly under pKd 3.1 to 4

Binder | pKd
B1 | below the threshold
B2 | below the threshold

These binders were tested against T8, DLG3_3, Q92796 (assay: holdup assay). Details: plain residues with an end cap or a label only (N-terminal biotin on a linker: ado-ado).
T8 sequence (Q92796 374-475, limits assumed, looked up): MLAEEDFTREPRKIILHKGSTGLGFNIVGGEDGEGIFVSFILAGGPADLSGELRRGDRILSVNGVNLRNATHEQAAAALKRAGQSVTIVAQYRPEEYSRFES
Design: key: below the threshold = too weak to quantify, mostly under pKd 3.1 to 4

Binder | pKd
B1 | below the threshold
B2 | 4.44

The binders below were run against Inadl_2, Q8NI35 (assay: holdup assay). Details: plain residues with an end cap or a label only (N-terminal biotin on a linker: ado-ado).
Design: key: below the threshold = too weak to quantify, mostly under pKd 3.1 to 4

Chain of Inadl_2, Q8NI35 (Q8NI35 238-335): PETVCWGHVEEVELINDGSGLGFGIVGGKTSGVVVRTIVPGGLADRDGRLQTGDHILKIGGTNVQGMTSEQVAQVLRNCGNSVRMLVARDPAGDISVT

Binder | pKd
B1 | below the threshold
B2 | below the threshold

Each binder was assayed against MAGI1_1, Q96QZ7 (assay: holdup assay). Details: plain residues with an end cap or a label only (N-terminal biotin on a linker: ado-ado).
Design: key: below the threshold = too weak to quantify, mostly under pKd 3.1 to 4

Chain of MAGI1_1, Q96QZ7 (Q96QZ7 1-106): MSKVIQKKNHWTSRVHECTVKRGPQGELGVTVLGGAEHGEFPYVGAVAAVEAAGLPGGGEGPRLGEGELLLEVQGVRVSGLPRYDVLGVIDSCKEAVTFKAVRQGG

Binder | pKd
B1 | below the threshold
B2 | below the threshold

What follows are binders tested against T9, SNTG2, Q9NY99 (assay: holdup assay). Details: plain residues with an end cap or a label only (N-terminal biotin on a linker: ado-ado).
T9 sequence (Q9NY99 68-166, limits assumed, looked up): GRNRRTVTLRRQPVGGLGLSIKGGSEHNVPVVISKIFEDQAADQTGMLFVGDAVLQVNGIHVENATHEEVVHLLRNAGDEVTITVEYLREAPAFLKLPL
Design: key: below the threshold = too weak to quantify, mostly under pKd 3.1 to 4

Binder | pKd
B1 | below the threshold
B2 | 4.18

Each binder was assayed against FRMPD2_3, Q68DX3 (assay: holdup assay). Details: plain residues with an end cap or a label only (N-terminal biotin on a linker: ado-ado).
Design: key: below the threshold = too weak to quantify, mostly under pKd 3.1 to 4

Chain of FRMPD2_3, Q68DX3 (Q68DX3 1073-1166): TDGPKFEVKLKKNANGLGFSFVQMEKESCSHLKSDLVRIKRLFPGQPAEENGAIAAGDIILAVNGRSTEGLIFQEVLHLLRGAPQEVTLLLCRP

Binder | pKd
B1 | below the threshold
B2 | below the threshold

What follows are binders tested against GRIP2_3, Q9C0E4 (assay: holdup assay). Details: plain residues with an end cap or a label only (N-terminal biotin on a linker: ado-ado).
Design: key: below the threshold = too weak to quantify, mostly under pKd 3.1 to 4

Chain of GRIP2_3, Q9C0E4 (Q9C0E4 238-339): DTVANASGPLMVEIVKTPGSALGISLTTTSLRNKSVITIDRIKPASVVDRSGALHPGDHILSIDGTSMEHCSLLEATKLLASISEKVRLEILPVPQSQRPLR

Binder | pKd
B1 | below the threshold
B2 | below the threshold

These binders were tested against LNX1_1, Q8TBB1 (assay: holdup assay). Details: plain residues with an end cap or a label only (N-terminal biotin on a linker: ado-ado).
Design: key: below the threshold = too weak to quantify, mostly under pKd 3.1 to 4

Chain of LNX1_1, Q8TBB1 (Q8TBB1 261-371): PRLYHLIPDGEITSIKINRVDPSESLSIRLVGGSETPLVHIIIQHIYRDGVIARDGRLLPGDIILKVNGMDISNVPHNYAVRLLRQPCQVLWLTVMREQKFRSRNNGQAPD

Binder | pKd
B1 | below the threshold
B2 | below the threshold

The binders below were run against PARD3_3, Q8TEW0 (assay: holdup assay). Details: plain residues with an end cap or a label only (N-terminal biotin on a linker: ado-ado).
Design: key: below the threshold = too weak to quantify, mostly under pKd 3.1 to 4

Chain of PARD3_3, Q8TEW0 (Q8TEW0 582-685): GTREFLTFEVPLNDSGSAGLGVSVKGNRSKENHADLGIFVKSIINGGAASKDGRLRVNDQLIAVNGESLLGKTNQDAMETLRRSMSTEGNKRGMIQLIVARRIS

Binder | pKd
B1 | below the threshold
B2 | below the threshold

The binders below were run against TJP1_3, Q07157 (assay: holdup assay). Details: plain residues with an end cap or a label only (N-terminal biotin on a linker: ado-ado).
Design: key: below the threshold = too weak to quantify, mostly under pKd 3.1 to 4

Chain of TJP1_3, Q07157 (Q07157 416-512): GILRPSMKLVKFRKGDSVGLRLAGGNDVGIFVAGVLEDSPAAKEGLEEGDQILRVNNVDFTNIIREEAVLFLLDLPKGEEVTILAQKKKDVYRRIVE

Binder | pKd
B1 | below the threshold
B2 | below the threshold

The binders below were run against T10, PARD3B_1, Q8TEW8 (assay: holdup assay). Details: plain residues with an end cap or a label only (N-terminal biotin on a linker: ado-ado).
T10 sequence (Q8TEW8 196-299, limits assumed, looked up): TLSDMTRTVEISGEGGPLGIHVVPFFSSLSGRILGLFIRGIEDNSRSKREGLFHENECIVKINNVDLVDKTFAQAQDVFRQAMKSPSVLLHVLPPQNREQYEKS
Design: key: below the threshold = too weak to quantify, mostly under pKd 3.1 to 4

Binder | pKd
B1 | below the threshold
B2 | below the threshold
